Results as given in PMC4176167, “Solution structure and intramolecular exchange of methyl-cytosine binding domain protein 4 (MBD4) on DNA suggests a mechanism to scan for mCpG/TpG mismatches”.

Legend:
[1] = target: Trx-His6-MBD4 MBD (SPR) (Homo sapiens, UniProt O95243 80-148); assay: SPR; SPR running buffer: 10 mM HEPES pH 7.4, 50 mM NaCl, 3 mM MgCl2, 0.1 mM EDTA, 1 mM DTT, 0.1% BSA, 0.005% polysorbate 20 (samples prepared at pH 6.5); temperature not given; NMR buffer not given (low salt, up to 100 mM NaCl in titration); conditions: protein: recombinant, tags: N-terminal thioredoxin and His6 fusion (modified pET32a), retained for SPR, label: 3' biotin on strand 1 (SPR only), blunt
Chain of Trx-His6-MBD4 MBD (SPR) (O95243 80-148): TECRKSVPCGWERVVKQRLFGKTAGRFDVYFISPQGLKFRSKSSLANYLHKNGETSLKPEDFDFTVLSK

[2] = target: Trx-His6-MBD4 MBD Y109F (SPR) (Homo sapiens, UniProt O95243 80-148, Y109F); assay: as above; conditions: protein: recombinant, tags: N-terminal thioredoxin and His6 fusion, retained for SPR, label: 3' biotin on strand 1 (SPR only), blunt
Chain of Trx-His6-MBD4 MBD Y109F (SPR) (O95243 80-148 Y109F): as the sequence (O95243 80-148) above, with Y30F counted along it

[3] = target: T1, cMBD2 MBD (NMR) (UniProt Q5EFL0 2-70); assay: NMR (HSQC, Nz-exchange); SPR running buffer: 10 mM HEPES pH 7.4, 50 mM NaCl, 3 mM MgCl2, 0.1 mM EDTA, 1 mM DTT, 0.1% BSA, 0.005% polysorbate 20 (samples prepared at pH 6.5); temperature not given; NMR buffer not given (low salt, up to 100 mM NaCl in titration); conditions: protein: recombinant; tags: tags removed by thrombin; blunt
T1 sequence (Q5EFL0 entry or part of it): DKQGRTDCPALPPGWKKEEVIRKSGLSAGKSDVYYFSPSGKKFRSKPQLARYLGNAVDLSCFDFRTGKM

[4] = target: T1, cMBD2 MBD (NMR); assay: NMR (TROSY HSQC); slow to intermediate exchange between sites; SPR running buffer: 10 mM HEPES pH 7.4, 50 mM NaCl, 3 mM MgCl2, 0.1 mM EDTA, 1 mM DTT, 0.1% BSA, 0.005% polysorbate 20 (samples prepared at pH 6.5); temperature not given; NMR buffer not given (low salt, up to 100 mM NaCl in titration); conditions: protein: recombinant; tags: tags removed by thrombin; blunt
[5] = target: T1, cMBD2 MBD (NMR); assay: NMR (TROSY HSQC); fast exchange between sites; SPR running buffer: 10 mM HEPES pH 7.4, 50 mM NaCl, 3 mM MgCl2, 0.1 mM EDTA, 1 mM DTT, 0.1% BSA, 0.005% polysorbate 20 (samples prepared at pH 6.5); temperature not given; NMR buffer not given (low salt, up to 100 mM NaCl in titration); conditions: protein: recombinant; tags: tags removed by thrombin; blunt
[6] = one G:T mismatch (strand 1 G10, strand 2 T8)

B1: mCpG (17 bp) (dsDNA)
DNA 1: GAGGCGCTCGGCGGCAG
DNA 2: CTGCCGCCGAGCGCCTC
modifications: 5-methyl-C at strand 1 position 9 and strand 2 position 8
Kd [1]: 6.4 ± 1.5 µM
Kd [2]: 7.9 ± 1.6 µM

B2: mCpG/TpG mismatch (17 bp) (dsDNA)
DNA 1: GAGGCGCTCGGCGGCAG
DNA 2: CTGCCGCTGAGCGCCTC
modifications: 5-methyl-C at strand 1 position 9
Kd [1, 6]: 11.5 ± 1.2 µM
Kd [2, 6]: 14 ± 1.4 µM

B3: mCpG (10 bp), wild-type (dsDNA)
DNA 1: GGATCGGCTC
DNA 2: GAGCCGATCC
modifications: 5-methyl-C at position 5 of both strands
binding result [3]: binds

B4: Inverted (10 bp) (dsDNA)
DNA 1: GGACCGACTC
DNA 2: GAGTCGGTCC
modifications: 5-methyl-C at position 5 of both strands
binding result [3]: binds

B5: Tandem (30 bp) (dsDNA)
DNA 1: CACGGATCGGCTCCCCCGAGTCGGTCCCGC
DNA 2: GCGGGACCGACTCGGGGGAGCCGATCCGTG
modifications: 5-methyl-C at strand 1 positions 8 and 22 and strand 2 positions 8 and 22
binding result [4]: binds

B6: Tandem (20 bp) (dsDNA)
DNA 1: GGATCGGCTCGGACCGACTC
DNA 2: GAGTCGGTCCGAGCCGATCC
modifications: 5-methyl-C at strand 1 positions 5 and 15 and strand 2 positions 5 and 15
binding result [5]: binds

B7: CpG (17 bp) (dsDNA)
DNA 1: GAGGCGCTCGGCGGCAG
DNA 2: CTGCCGCCGAGCGCCTC
Kd [2]: 19.6 ± 3.5 µM

B8: hmCpG (17 bp) (dsDNA)
DNA 1: GAGGCGCTCGGCGGCAG
DNA 2: CTGCCGCCGAGCGCCTC
modifications: 5-hydroxymethyl-C at strand 1 position 9 and strand 2 position 8
Kd [2]: 16 ± 3 µM
